# Measurements taken from patent US6740739B1, “Substitutional variants of APO-2 ligand” (Genentech, Inc., priority 1998, dated 2004).
# Columns and labels:
# 293 = experiment: Apoptosis by FACS, non-lymphoid tumor cell lines; type: cell-based, human; conditions: Apo-2 ligand 3 μg/ml, 24 hours, control 12.3
# Experimental: (§1) The effects of the Apo-2 ligand on the 9D cells, as well as on Raji cells (human Burkitt's lymphoma B cell line, ATCC CCL 86) and Jurkat cells (human acute T cell leukemia cell line, ATCC TIB 152) were further analyzed by FACS. The FACS analysis was conducted, using established criteria for apoptotic cell death, namely, the relation of fluorescence staining of the cells with two markers: (a) propidium iodide (“PI”) dye, which stains apoptotic but not live cells, and (b) a fluorescent derivative of the protein, annexin V, which binds to the exposed phosphatidylserine found on the surface of apoptotic cells, but not on live cells [Darzynkiewicz et al., Methods in Cell Biol., 41:15-38 (1994); Fadok et al., J. Immunol., 148:2207-2216 (1992); Koopman et al., Blood, 84:1415-1420 (1994)].
# (§2) The 9D cells (FIG. 2B), Raji cells (FIG. 2C), and Jurkat cells (FIG. 2D) were incubated (1×10^6 cells/well) for 24 hours with a media control (left panels), Apo-2 ligand (3 μg/ml, prepared as described in Example 3) (center panels), or anti-Apo-1 ligand antibody, CH11 (1 μg/ml) (right panels). The cells were then washed, stained with PI and with fluorescein thiocyanate (FITC)-conjugatedannexin V (purchased from Brand Applications) and analyzed by flow cytometry. Cells negative for both PI and annexin V staining (quadrant 3) represent live cells; PI-negative, annexin V-positive staining cells (quadrant 4) represent early apoptotic cells; PI-positive, annexin V-positive staining cells (quadrant 2) represent primarily cells in late stages of apoptosis.
# (§3) The effect of Apo-2 ligand on human non-lymphoid tumor cell lines was examined using the following cell lines: HeLa (derived from human cervical carcinoma, ATCC CCL 22); ME-180 (derived from human cervical carcinoma, ATCC HTB 33); MCF7 (derived from human breast carcinoma, ATCC HTB 22); U-937 (derived from human hystiocytic lymphoma, ATCC CRL 1593); A549 (derived from human lung carcinoma, ATCC CCL 185); and 293 (derived from an adenovirus-transformed human embryonic kidney cells, ATCC CCL 1573).
# (§4) In the assay, 1×10^6 cells of each cell line were incubated for 24 hours with a media control, Apo-2 ligand (3 μg/ml, prepared as described in Example 3), or anti-Apo-1 monoclonal antibody, CH 11 (1 μg/m1). Following the incubation, apoptosis was measured by FACS analysis, as described in Example 4.
# A549 = experiment: Apoptosis by FACS, non-lymphoid tumor cell lines; type: cell-based, human; conditions: Apo-2 ligand 3 μg/ml, 24 hours, control 16.5
# Experimental: as §1, §2, §3, §4
# HeLa = experiment: Apoptosis by FACS, non-lymphoid tumor cell lines; type: cell-based, human; conditions: Apo-2 ligand 3 μg/ml, 24 hours, control 5.3
# Experimental: as §1, §2, §3, §4
# MCF7 = experiment: Apoptosis by FACS, non-lymphoid tumor cell lines; type: cell-based, human; conditions: Apo-2 ligand 3 μg/ml, 24 hours, control 39.9
# Experimental: as §1, §2, §3, §4
# ME-180 = experiment: Apoptosis by FACS, non-lymphoid tumor cell lines; type: cell-based, human; conditions: Apo-2 ligand 3 μg/ml, 24 hours, control 8.6
# Experimental: as §1, §2, §3, §4
# U-937 = experiment: Apoptosis by FACS, non-lymphoid tumor cell lines; type: cell-based, human; conditions: Apo-2 ligand 3 μg/ml, 24 hours, control 3.6
# Experimental: as §1, §2, §3, §4
# T lymphocytes = experiment: Apoptosis by FACS in peripheral blood T cells; type: cell-based, human; conditions: Apo-2 ligand 3 μg/ml, 3 days, mean ±SE
# Experimental: Peripheral blood mononuclear cells (“PBMC&”) were isolated from the blood of human donors by Ficoll density gradient centrifugation using Lymphocyte Separation Medium (LSM®, Organon Teknika). An isolated population of T cells was prepared from the PBMC by removal of B cells through surface Ig binding to an anti-Ig column and removal of monocytes through Fc receptor binding to an Ig column (R & D Systems). An isolated population of B cells was prepared from the PBMC by complement-mediatedelimination of T cells reacted with the anti-CD3 antibody produced by the OKT3 myeloma (ATCC, CRL 8001) and of monocytes reacted with a monocyte-specific antibody produced by the 4F2C13 hybridoma (ATCC, HB 22). Additional monocyte removal was accomplished by adherence to plastic.
# The freshly isolated peripheral blood B or T cells (1×10^6 cells/well) were cultured for 3 days in the presence of a media control or Apo-2 ligand (3 μg/ml, prepared as described in Example 3). For activation, B cells were treated simultaneously with lipopolysaccharide (“LPS”, 1 μg/ml), and T cells were treated with phorbol myristate acetate (“PMA”, 10 ng/ml) plus ionomycin (1 μg/ml) (Sigma). For interleukin-2 (“IL-2”) pretreatment, T cells were cultured for 3-5 days in the presence of IL-2 (50 U/ml) (Genzyme) before exposure to Apo-2 ligand. Apoptosis was determined using FACS analysis essentially as described above in Example 4. However, B cells were gated by anti-CD19/CD20 antibodies (Jackson Immunoresearch), and T cells were gated by anti-CD4/CD8 antibodies (Jackson lmmunoresearch). The results are shown in Table 2 below, representing means ±SE of independent experiments [B lymphocytes—9 experiments; T lymphocytes—8 experiments; T lymphocytes plus IL-2-5 experiments], in which 50,000 cells were analyzed per data point. Statistical analysis was performed using the student t-test. In Table 2, a=p<0.05 and b=p<0.02 relative respective control.
# [1] = tested on: HCT116 human colon carcinoma cells; experiment: Tumor volume in nude mice, osmotic mini-pump infusion; type: in vivo; conditions: E. coli-expressed Apo-2 ligand (aa 91-281/92-281) 10 mg/kg each day by intraperitoneal osmotic mini-pump; over 3 days; vehicle no change; FIG. 15
# Experimental: In the experiment, the nude mice were injected subcutaneously with HCT116 human colon carcinoma cells (ATCC CCL 247) (1×10^6 cells) on each side of the animal. The tumors were then allowed to grow to reach approximately 1 cm diameter (approximately 10 days). On Day 0, the tumor volume was measured with calipers. Volume was calculated as π/6×ab^2, where a=length and b=width. Then osmotic mini-pumps (available from Alza Corp., Model 1003) were implanted intraperitoncally into each animal. The mini-pumps were loaded with either (1) control vehicle (20 mM Tris pH 7.5, 8% Trehalose. 0.01% Tween-20) or (2) Apo-2 ligand. Five animals in each group received either the control vehicle or Apo-2 ligand. The mini-pumps were calibrated to deliver each day 10 mg/kg Apo-2 ligand (10 mg/ml×2 μl/hour) or 2 μl/hour control vehicle.
# On Day 3, the tumor volume was again measured, and the animals were sacrificed. […] There was no change in tumor volume in the vehicle group, but a marked reduction in tumor size occurred in mice infused with the Apo-2L. The treatment with the Apo-2L shrunk the tumors by about 50% over 3 days.
molecule,measurement,setting,value
"Apo-2L: purified soluble His10-tagged human Apo-2 ligand, residues 114-281, from baculovirus-infected Sf9 cells (Example 3); used in Examples 4-14 (protein) MGHHHHHHHHHHSSGHIDDDDKHMVRERGPQRVAAHITGTRGRSNTLSSPNSKNEKALGRKINSWESSRSGHSFLSNLHLRNGELVIHEKGFYYIYSQTYFRFQEEIKENTKNDKQMVQYIYKYTSYPDPILLMKSARNSCWSKDAEYGLYSIYQGGIFELKENDRIFVSVTNEHLIDMDHEASFFGAFLVG",% apoptotic cells,293,12.2%
same,% apoptotic cells,A549,74.6%
same,% apoptotic cells,HeLa,18.6%
same,% apoptotic cells,MCF7,47.3%
same,% apoptotic cells,ME-180,80.7%
same,% apoptotic cells,U-937,62.3%
same,% apoptolic cells,"T lymphocytes; IL-2 pretreatment (50 U/ml, 3-5 days), control 13.7 ± 1.2, b=p<0.02",34.5 ± 4.8^b %
same,% apoptolic cells,"T lymphocytes; PMA/ionomycin, control 40.3 ± 4.4, a=p<0.05",54.2 ± 3.3^a %
same,% apoptolic cells,"T lymphocytes; treatment none, control 6.3 ± 0.6",8.2 ± 0.8%
same,shrinkage of tumors (change in tumor volume),[1],about 50%
